For one experiment, the target named is T1, AE.97CNG2XF gp140CF (HIV-1).
T1 construct: also called E.97CNGX2F gp140CF
Nature of the experiment: ELISA, OD405 at 10 ug/ml.

A further experiment deals with AE.con gp140CF. Briefly: ELISA, OD405 at 10 ug/ml. On the technique in general: In an ELISA, binding on a coated surface is turned into a signal by an enzyme label.
Another experiment addresses Con 6 gp120. Briefly: ELISA, OD405 at 10 ug/ml.
The target of another experiment is T2, SIV CPZ US-1 gp140CF (SIVcpz).
T2 construct: also called US-1 SIVCPZ gp140CF
T2 chain: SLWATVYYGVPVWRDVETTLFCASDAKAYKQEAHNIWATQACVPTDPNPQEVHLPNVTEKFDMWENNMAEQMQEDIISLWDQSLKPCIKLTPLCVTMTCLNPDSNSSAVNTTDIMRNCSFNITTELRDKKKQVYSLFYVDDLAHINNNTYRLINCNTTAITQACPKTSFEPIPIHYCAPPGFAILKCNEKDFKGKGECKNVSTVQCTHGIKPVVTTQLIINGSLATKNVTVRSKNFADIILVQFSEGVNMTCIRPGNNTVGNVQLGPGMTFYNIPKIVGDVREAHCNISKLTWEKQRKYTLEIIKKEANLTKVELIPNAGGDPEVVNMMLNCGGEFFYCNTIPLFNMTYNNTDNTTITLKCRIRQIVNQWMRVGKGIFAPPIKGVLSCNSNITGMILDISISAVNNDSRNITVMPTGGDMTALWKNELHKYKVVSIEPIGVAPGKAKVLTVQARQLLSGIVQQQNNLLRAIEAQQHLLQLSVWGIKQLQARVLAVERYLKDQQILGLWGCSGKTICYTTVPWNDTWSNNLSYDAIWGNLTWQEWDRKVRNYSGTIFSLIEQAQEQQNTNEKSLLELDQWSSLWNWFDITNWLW
Nature of the experiment: ELISA, OD405 at 10 ug/ml.

A further experiment deals with G.con gp140CF. Briefly: ELISA, OD405 at 10 ug/ml.
A further experiment addresses B.040 gp140C. Briefly: ELISA, OD405 at 10 ug/ml.
In another experiment the target is C.CAP206 gp140CF.12 (HIV-1). Nature of the experiment: ELISA, OD405 at 10 ug/ml.
The target of the next experiment is T3, gp70 C.1086 V1/V2 (HIV-1 V1V2 on murine leukemia virus gp70).
T3 construct: also called C.gp70 1086C V1V2; C.1086gp70V1V2
T3 chain: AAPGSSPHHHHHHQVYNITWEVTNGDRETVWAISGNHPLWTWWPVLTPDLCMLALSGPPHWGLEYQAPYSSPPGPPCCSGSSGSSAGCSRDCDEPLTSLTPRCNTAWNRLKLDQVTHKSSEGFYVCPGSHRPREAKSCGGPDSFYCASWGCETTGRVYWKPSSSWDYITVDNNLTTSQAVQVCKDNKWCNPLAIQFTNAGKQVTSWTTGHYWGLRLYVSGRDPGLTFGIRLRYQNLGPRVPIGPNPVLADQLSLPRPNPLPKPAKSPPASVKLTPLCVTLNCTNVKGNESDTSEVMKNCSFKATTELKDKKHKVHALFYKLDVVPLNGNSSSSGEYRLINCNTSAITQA
Briefly: ELISA, OD405 at 10 ug/ml.

Another experiment has as its target T4, B.HXB/BAL gp140CFI (HIV-1, UniProt P04578 33-680).
T4 construct: also called B.HxB/Ba gp140 CFI
Nature of the experiment: ELISA, OD405 at 10 ug/ml.

The target of the next experiment is B.con gp140CF. Briefly: ELISA, OD405 at 10 ug/ml.
The next experiment has as its target T5, gp70 B.CaseA2 V1/V2 (HIV-1 V1V2 on murine leukemia virus gp70).
T5 construct: also called B.gp70CaseA2 V1/V2; gp70 B.CaseAV1V2
T5 chain: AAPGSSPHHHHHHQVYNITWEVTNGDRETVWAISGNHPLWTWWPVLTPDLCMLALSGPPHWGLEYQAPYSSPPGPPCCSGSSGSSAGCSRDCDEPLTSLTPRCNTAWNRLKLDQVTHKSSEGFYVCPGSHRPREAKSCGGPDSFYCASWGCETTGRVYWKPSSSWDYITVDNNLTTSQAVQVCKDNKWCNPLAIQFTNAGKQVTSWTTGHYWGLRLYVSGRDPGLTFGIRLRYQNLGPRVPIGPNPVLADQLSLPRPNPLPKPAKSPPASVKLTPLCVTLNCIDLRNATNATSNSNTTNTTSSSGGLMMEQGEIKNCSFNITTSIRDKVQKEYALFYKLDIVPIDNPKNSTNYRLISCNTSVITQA
Briefly: ELISA, OD405 at 10 ug/ml.

The next experiment concerns the target T6, A.9004SS V1/V2 tags.
T6 V1V2 tags construct: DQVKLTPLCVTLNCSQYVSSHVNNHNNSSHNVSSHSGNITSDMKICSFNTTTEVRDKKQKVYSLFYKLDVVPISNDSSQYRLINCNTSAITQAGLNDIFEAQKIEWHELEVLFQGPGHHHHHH
Nature of the experiment: ELISA, OD405 at 10 ug/ml.

For the next experiment, the target named is T7, C.1086 gp140.
T7 construct: also called C.1086gp140C
Briefly: ELISA, OD405 at 10 ug/ml.

The target of another experiment is T8, AE.A244 gp120 delta 11 (HIV-1).
T8 construct: also called E.A244gp120Δ11; AE.A244 Δ11 gp120
Nature of the experiment: ELISA.

Another experiment concerns the target AE.A244 V1V2 Tags (HIV-1). Briefly: ELISA.

B1: CH01 UA3 (antibody, V domains shown)
VH: EVQLVESGGGVVRPGGSLRLSCAASGFTFDDYGMSWVRQAPGKGLEWVSGINWNGGSTGYADSVKGRFTISRDNAKNSLYLQMNSLRAEDTALYHCARGTDYTIDDQGIHYYGSGTYWYFDLWGRGTLVTVSS
VL: not shown
As for B1, the binding result in the experiment with AE.97CNG2XF gp140CF, in the experiment with AE.con gp140CF, with Con 6 gp120, with SIV CPZ US-1 gp140CF, with G.con gp140CF and with B.040 gp140C was “no binding (tested: 10 ug/ml)” each time. Besides, the binding result with C.CAP206 gp140CF.12, in the experiment with gp70 C.1086 V1/V2, with B.HXB/BAL gp140CFI, with B.con gp140CF, in the experiment with gp70 B.CaseA2 V1/V2 and in the experiment with A.9004SS V1/V2 tags was “no binding (tested: 10 ug/ml)” in each case. In addition, the binding result in the experiment with C.1086 gp140 is recorded as “no binding (tested: 10 ug/ml)”. The half-maximal effective concentration (EC50) with AE.A244 gp120 delta 11 came to 9.3 nM; with AE.A244 V1V2 Tags, 18 nM.

The term EC50 denotes the concentration that produces a half-maximal response. Higher therefore signals a need for much substance.

These data come from US9988424 (DUKE UNIVERSITY, dated 2018).
